Laboratory results as given in publication PMC11638004, “Phosphorylation of auxin signaling repressor IAA8 by heat-responsive MPKs causes defective flower development” (Plant Physiology, 2024).

Tests used:
Experiment in all cases: pull-down; 2 μg GST-IAA8 or GST on glutathione-Sepharose-4B beads, 5 μg His-MPK added, overnight at 4°C; 50 mM Tris-HCl pH 7.5, 200 mM NaCl, 0.1 mM EDTA, 0.5 mM DTT, 1% Triton X-100; four washes; immunoblot with anti-His
Details in all cases: both partners purified
[1] = molecular target: T1, His-MPK4 (Arabidopsis thaliana, UniProt Q39024 1-376)
T1 construct: The N-terminal position of the His tag is read from the name His-MPK4 and the vector pQE30; also called His-fused MPK4; source: E. coli M15, purified (Ni-NTA agarose); not shown: His, N-terminal, kept
T1 sequence (looked up): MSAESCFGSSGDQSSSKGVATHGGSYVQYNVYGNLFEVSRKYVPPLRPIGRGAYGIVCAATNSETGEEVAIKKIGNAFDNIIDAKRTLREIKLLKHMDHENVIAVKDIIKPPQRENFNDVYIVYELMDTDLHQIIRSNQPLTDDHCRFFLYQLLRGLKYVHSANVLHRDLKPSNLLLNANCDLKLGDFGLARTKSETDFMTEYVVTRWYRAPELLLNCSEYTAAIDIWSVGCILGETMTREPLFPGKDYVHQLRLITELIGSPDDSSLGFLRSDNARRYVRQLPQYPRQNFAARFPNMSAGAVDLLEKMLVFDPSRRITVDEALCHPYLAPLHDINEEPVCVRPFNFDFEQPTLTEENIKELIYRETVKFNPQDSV

[2] = molecular target: T2, His-MPK3 (Arabidopsis thaliana, UniProt Q39023 1-370)
T2 construct: The N-terminal position of the His tag is read from the name His-MPK3 and the vector pQE30; also called His-fused MPK3; source: E. coli M15, purified (Ni-NTA agarose); not shown: His, N-terminal, kept
T2 sequence (looked up): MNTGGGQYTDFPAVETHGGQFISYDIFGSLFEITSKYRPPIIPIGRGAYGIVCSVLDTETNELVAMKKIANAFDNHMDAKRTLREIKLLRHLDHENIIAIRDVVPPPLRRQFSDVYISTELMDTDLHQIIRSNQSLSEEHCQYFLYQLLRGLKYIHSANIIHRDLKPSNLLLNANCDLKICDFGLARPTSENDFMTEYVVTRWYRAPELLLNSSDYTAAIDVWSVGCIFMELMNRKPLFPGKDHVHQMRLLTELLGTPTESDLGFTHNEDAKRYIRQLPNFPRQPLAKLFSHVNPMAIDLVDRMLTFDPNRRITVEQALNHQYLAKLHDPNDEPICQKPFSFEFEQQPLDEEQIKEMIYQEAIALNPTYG

[3] = molecular target: T3, His-MPK6 (Arabidopsis thaliana, UniProt Q39026 1-395)
T3 construct: The N-terminal position of the His tag is read from the name His-MPK6 and the vector pQE30; also called His-fused MPK6; source: E. coli M15, purified (Ni-NTA agarose); not shown: His, N-terminal, kept

Measured: binding result

T3 sequence (Q39026 whole entry, the tested form may be a part): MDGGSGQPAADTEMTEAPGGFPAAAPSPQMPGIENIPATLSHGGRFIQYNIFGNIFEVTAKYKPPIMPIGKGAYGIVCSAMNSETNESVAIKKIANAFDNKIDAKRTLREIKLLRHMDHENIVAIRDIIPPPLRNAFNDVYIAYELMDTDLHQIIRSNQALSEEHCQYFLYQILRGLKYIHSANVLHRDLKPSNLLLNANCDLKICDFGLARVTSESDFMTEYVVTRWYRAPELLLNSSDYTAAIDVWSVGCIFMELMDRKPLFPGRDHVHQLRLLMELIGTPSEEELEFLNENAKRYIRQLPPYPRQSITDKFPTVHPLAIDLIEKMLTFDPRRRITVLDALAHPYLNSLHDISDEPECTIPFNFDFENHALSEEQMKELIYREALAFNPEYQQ

B1: GST-IAA8 (natural protein, Arabidopsis thaliana, UniProt Q38826 1-321, looked up)
chain: MSYRLLSVDKDELVTSPCLKERNYLGLSDCSSVDSSTIPNVVGKSNLNFKATELRLGLPESQSPERETDFGLLSPRTPDEKLLFPLLPSKDNGSATTGHKNVVSGNKRGFADTWDEFSGVKGSVRPGGGINMMLSPKVKDVSKSIQEERSHAKGGLNNAPAAKAQVVGWPPIRSYRKNTMASSTSKNTDEVDGKPGLGVLFVKVSMDGAPYLRKVDLRTYTSYQQLSSALEKMFSCFTLGQCGLHGAQGRERMSEIKLKDLLHGSEFVLTYEDKDGDWMLVGDVPWEIFTETCQKLKIMKGSDSIGLAPGAVEKSKNKERV
notes: IAA8 (Indole-3-Acetic Acid 8), Arabidopsis thaliana, At2g22670, full length, amplified from an Arabidopsis cDNA library and cloned into pGEX-4T-1; The N-terminal position of GST is read from the name GST-IAA8 and the vector pGEX-4T-1; also called GST-IAA8^WT; GST-fused IAA8; source: E. coli BL21 (DE3), purified (glutathione Sepharose-4B); not shown: GST, N-terminal, kept
binds: [1] | [2] | [3]
